Laboratory results from article PMC11341566 (Nature Communications, 2024).
One block for each molecule: values may come before it. Square brackets hold non-standard residues; d marks the D form.

Columns and labels:
trypsin = target: T1, trypsin (UniProt P35030 81-304)
T1 sequence (looked up): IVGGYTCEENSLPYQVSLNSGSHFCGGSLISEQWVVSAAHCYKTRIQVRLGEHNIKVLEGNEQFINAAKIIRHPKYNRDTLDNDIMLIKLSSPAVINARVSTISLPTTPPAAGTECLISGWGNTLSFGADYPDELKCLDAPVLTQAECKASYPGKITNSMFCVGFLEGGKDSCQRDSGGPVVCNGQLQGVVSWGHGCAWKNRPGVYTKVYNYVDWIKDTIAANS

lipase = target: T2, lipase (UniProt P16233 17-465)
T2 sequence (looked up): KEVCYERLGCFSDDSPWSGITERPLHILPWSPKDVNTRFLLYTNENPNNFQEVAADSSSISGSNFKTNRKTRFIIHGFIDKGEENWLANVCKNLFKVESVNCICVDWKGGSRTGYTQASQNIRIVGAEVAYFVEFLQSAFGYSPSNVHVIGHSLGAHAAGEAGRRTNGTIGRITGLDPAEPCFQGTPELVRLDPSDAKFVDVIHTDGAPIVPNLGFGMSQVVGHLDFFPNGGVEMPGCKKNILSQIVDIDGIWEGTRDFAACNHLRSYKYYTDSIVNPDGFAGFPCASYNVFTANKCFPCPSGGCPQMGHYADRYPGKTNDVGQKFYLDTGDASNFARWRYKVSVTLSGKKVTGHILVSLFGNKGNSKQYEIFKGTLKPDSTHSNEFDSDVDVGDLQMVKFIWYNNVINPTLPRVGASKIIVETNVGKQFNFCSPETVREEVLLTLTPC

[1] = target: CP-CNDS, fluorescein-labelled (mixture of DCP1 and DCP2, mass ratio 2:3); assay: fluorescence polarisation

Molecule: chymotrypsin (enzyme)
- Kd (Ac-(rada)4-NH2): 227 nM

B1: Ac-(rada)4-NH2 (peptide)
peptide: Ac-[dR][dA][dD][dA][dR][dA][dD][dA][dR][dA][dD][dA][dR][dA][dD][dA]-NH2
- Kd (trypsin): ~342 nM
- Kd (lipase): ~452 nM

Other lines, results leading:

- Kd [1]: 251 nM
B2: lipase (enzyme)
chain: KEVCYERLGCFSDDSPWSGITERPLHILPWSPKDVNTRFLLYTNENPNNFQEVAADSSSISGSNFKTNRKTRFIIHGFIDKGEENWLANVCKNLFKVESVNCICVDWKGGSRTGYTQASQNIRIVGAEVAYFVEFLQSAFGYSPSNVHVIGHSLGAHAAGEAGRRTNGTIGRITGLDPAEPCFQGTPELVRLDPSDAKFVDVIHTDGAPIVPNLGFGMSQVVGHLDFFPNGGVEMPGCKKNILSQIVDIDGIWEGTRDFAACNHLRSYKYYTDSIVNPDGFAGFPCASYNVFTANKCFPCPSGGCPQMGHYADRYPGKTNDVGQKFYLDTGDASNFARWRYKVSVTLSGKKVTGHILVSLFGNKGNSKQYEIFKGTLKPDSTHSNEFDSDVDVGDLQMVKFIWYNNVINPTLPRVGASKIIVETNVGKQFNFCSPETVREEVLLTLTPC

- Kd [1]: 102 nM
B3: trypsin (enzyme)
chain: IVGGYTCEENSLPYQVSLNSGSHFCGGSLISEQWVVSAAHCYKTRIQVRLGEHNIKVLEGNEQFINAAKIIRHPKYNRDTLDNDIMLIKLSSPAVINARVSTISLPTTPPAAGTECLISGWGNTLSFGADYPDELKCLDAPVLTQAECKASYPGKITNSMFCVGFLEGGKDSCQRDSGGPVVCNGQLQGVVSWGHGCAWKNRPGVYTKVYNYVDWIKDTIAANS
